This note sets out measurements from article PMC4148199, “Multiple Regulation of Rad51-Mediated Homologous Recombination by Fission Yeast Fbh1” (PLoS Genetics, 2014).

For data set [1], the target named is T1, complex of 3FLAG6His-Fbh1 and 6His-Skp1 (S. pombe, UniProt Q9USU3 1-878; Q9Y709 1-161).
T1 construct: Fbh1 (F-box DNA helicase-1), Schizosaccharomyces pombe; Skp1, Schizosaccharomyces pombe; also called FLAG-His-tagged Fbh1-Skp1; Fbh1-Skp1 complex; source: insect cells, baculovirus co-infection, purified as a complex
T1 sequence (looked up) 1: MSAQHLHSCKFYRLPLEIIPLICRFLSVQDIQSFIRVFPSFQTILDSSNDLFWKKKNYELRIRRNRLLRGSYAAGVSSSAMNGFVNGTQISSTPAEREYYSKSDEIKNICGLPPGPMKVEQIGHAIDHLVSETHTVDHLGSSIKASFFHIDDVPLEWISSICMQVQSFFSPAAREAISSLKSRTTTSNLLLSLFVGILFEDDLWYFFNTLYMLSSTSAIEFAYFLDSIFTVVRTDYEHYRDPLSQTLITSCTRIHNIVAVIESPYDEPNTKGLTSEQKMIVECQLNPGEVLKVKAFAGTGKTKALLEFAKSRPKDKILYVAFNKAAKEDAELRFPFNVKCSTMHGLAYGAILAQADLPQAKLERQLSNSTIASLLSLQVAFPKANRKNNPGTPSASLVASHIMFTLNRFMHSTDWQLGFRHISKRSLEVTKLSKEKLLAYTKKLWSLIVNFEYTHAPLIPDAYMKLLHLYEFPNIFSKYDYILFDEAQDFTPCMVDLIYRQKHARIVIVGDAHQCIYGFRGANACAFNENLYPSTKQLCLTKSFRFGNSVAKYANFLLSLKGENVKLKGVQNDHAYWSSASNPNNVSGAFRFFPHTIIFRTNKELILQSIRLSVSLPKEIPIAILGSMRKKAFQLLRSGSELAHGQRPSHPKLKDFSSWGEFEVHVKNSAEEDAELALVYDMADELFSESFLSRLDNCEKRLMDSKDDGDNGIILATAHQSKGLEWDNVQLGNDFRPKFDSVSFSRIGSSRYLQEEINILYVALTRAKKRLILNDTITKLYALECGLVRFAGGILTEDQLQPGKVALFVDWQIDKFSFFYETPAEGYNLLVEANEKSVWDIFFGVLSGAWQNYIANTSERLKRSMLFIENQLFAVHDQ
T1 sequence (looked up) 2: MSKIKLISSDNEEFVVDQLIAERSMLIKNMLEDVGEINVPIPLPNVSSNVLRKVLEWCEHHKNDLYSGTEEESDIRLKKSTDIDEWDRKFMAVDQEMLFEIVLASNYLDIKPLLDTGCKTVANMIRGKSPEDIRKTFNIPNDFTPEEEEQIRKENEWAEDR
Kind of data set: co-IP; in vitro; 0.5 µg of each purified protein mixed in 10 µl 25 mM Tris-OAc pH 7.5, 100 mM KCl, 0.5% NP40, 3 mM Mg-acetate, 10 min room temperature then 20 min 4°C; M2 anti-FLAG antibody and Dynabeads Protein G; western blot with anti-Rad51, anti-Sfr1 or anti-M2. To be noted: both partners purified. For orientation: A western blot detects proteins with antibodies after separation by electrophoresis.

The next data set concerns the target T2, Fbh1;Skp1 (Schizosaccharomyces …, UniProt Q9USU3;Q9Y709 1-878;1-161, |).
T2 sequence 1: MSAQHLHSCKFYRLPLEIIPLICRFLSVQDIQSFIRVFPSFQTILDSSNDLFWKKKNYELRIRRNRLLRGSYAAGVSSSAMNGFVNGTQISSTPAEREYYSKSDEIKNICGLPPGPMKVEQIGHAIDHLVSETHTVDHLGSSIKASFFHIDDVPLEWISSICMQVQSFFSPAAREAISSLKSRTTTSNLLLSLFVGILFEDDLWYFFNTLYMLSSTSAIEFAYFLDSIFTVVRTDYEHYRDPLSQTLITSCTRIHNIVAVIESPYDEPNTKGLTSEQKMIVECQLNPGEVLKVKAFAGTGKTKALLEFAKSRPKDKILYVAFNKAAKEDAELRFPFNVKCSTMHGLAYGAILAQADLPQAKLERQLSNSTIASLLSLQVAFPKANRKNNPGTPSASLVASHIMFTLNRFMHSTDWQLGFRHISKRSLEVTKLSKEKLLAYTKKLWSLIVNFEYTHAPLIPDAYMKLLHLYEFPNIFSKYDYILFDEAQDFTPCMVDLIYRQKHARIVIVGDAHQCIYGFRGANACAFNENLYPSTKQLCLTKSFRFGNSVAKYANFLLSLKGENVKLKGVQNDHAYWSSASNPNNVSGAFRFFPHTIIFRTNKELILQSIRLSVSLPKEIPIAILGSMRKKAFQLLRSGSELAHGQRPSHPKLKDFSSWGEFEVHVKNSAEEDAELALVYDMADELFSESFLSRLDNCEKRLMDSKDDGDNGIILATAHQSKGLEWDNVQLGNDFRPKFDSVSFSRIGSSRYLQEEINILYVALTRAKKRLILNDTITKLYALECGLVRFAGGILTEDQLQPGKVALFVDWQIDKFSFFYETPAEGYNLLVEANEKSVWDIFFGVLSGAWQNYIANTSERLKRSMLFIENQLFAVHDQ
T2 sequence 2: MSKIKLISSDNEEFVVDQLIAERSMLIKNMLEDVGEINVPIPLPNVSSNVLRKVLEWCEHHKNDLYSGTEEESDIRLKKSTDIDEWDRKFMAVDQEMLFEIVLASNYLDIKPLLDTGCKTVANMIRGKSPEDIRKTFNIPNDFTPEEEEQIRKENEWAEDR
Kind of data set: EMSA; 3 mM Mg-acetate; preferred substrate; EMSA: 25 mM Tris-acetate pH 8.0, 1 mM DTT, 3 mM Mg-acetate, 5% glycerol, 100 mM KCl, 10 nM DNA, 30 C 10 min; ssDNA beads: 30 mM Tris-HCl pH 7.5, 1 mM DTT, 100 mM NaCl, 3.5 mM MgCl2, 5% glycerol, 0.25% Tween 20, ATP regeneration system, 37 C. Conditions: protein: recombinant;recombinant; tags: 6His;6His; copies: 1;1; label: 32P.

B1: Rad51 (natural protein, S. pombe, UniProt P36601 1-365, looked up)
chain: MADTEVEMQVSAADTNNNENGQAQSNYEYDVNVQDEEDEAAAGPMPLQMLEGNGITASDIKKIHEAGYYTVESIAYTPKRQLLLIKGISEAKADKLLGEASKLVPMGFTTATEYHIRRSELITITTGSKQLDTLLQGGVETGSITELFGEFRTGKSQICHTLAVTCQLPIDMGGGEGKCLYIDTEGTFRPVRLLAVADRYGLNGEEVLDNVAYARAYNADHQLELLQQAANMMSESRFSLLVVDSCTALYRTDFSGRGELSARQMHLARFMRTLQRLADEFGIAVVITNQVVAQVDGISFNPDPKKPIGGNILAHSSTTRLSLRKGRGEQRICKIYDSPCLPESEAIFAINSDGVGDPKEIIAPV
notes: Rad51 recombinase, Schizosaccharomyces pombe; also called SpRad51
Take B1: the binding result in data set [1] is on record as “binds”.

B2: F3-d47 (47-mer ssDNA) (ssDNA)
DNA: AGCTATGACCATGATTACGAATTGCTTGGAATCCTGACGAACTGTAG
On to B2, for which, in the data set with Fbh1;Skp1, the binding result is recorded as “binds”.
